As usually defined, the pKd is the Kd on a negative log10 scale, so that one unit is a factor of ten.

The text below walks through data of the Immune Epitope Database (IEDB).

The target in experiment [1] is HLA-A*02:01. Description: IEDB peptide-MHC binding, purified MHC/direct/fluorescence; filed as Kd, often an IC50 or EC50 that approximates it; ≥ and ≤ were set here for values at or beyond the usual limits of such assays.
For experiment [2], the target named is HLA-A*03:01. Described as above.
Experiment [3] addresses HLA-A*11:01. The experiment is described as above.
For experiment [4], the target named is HLA-A*24:02. Described as above.
The target of experiment [5] is HLA-A*26:01. The experiment is described as above.
Experiment [6] has as its target HLA-A*31:01. The description is as above.
The target in experiment [7] is HLA-A*69:01. The experiment is described as above.
In experiment [8] the target is HLA-B*07:02. Described as above.
The target in experiment [9] is HLA-B*08:01. Described as above.
Experiment [10] concerns the target HLA-B*08:02. The experiment is described as above.
Experiment [11] has as its target HLA-B*15:01. The experiment is described as above.
Experiment [12] concerns the target HLA-B*27:05. Described as above.
Experiment [13] concerns the target HLA-B*40:01. Described as above.
For experiment [14], the target named is HLA-B*58:01. Described as above.
In experiment [15] the target is HLA-A*01:01. Described as above.
The target of experiment [16] is HLA-B*44:02. The description is as above. Particulars: source organism: Giardia lamblia ATCC 50803.
The target in experiment [17] is HLA-B*18:01. The description is as above. The settings on record: source organism: Giardia lamblia ATCC 50803.
Experiment [18] concerns the target HLA-B*46:01. Described as above. Particulars: source organism: Giardia lamblia ATCC 50803.
In experiment [19] the target is HLA-A*01:01. Description: IEDB peptide-MHC binding, purified MHC/competitive/radioactivity; filed as Kd, often an IC50 or EC50 that approximates it; ≥ and ≤ were set here for values at or beyond the usual limits of such assays. The settings on record: source organism: Hepacivirus hominis.
In experiment [20] the target is HLA-A*02:01. The experiment is described as above. Particulars: source organism: Hepacivirus hominis.
In experiment [21] the target is HLA-A*02:02. The description is as above. The settings on record: source organism: Hepacivirus hominis.
Experiment [22] deals with HLA-A*02:03. The experiment is described as above. Particulars: source organism: Hepacivirus hominis.
Experiment [23] deals with HLA-A*02:06. Described as above. The settings on record: source organism: Hepacivirus hominis.
The target in experiment [24] is HLA-A*03:01. The experiment is described as above. The settings on record: source organism: Hepacivirus hominis.
Experiment [25] addresses HLA-A*11:01. Described as above. The settings on record: source organism: Hepacivirus hominis.
In experiment [26] the target is HLA-A*31:01. The experiment is described as above. Particulars: source organism: Hepacivirus hominis.
Experiment [27] concerns the target HLA-A*33:01. The description is as above. The settings on record: source organism: Hepacivirus hominis.
For experiment [28], the target named is HLA-A*68:01. The description is as above. Particulars: source organism: Hepacivirus hominis.
In experiment [29] the target is HLA-A*68:02. Described as above. The settings on record: source organism: Hepacivirus hominis.
The target in experiment [30] is HLA-B*07:02. The experiment is described as above. Particulars: source organism: Hepacivirus hominis.
The target in experiment [31] is HLA-B*08:01. The experiment is described as above. The settings on record: source organism: Hepacivirus hominis.
Experiment [32] concerns the target HLA-B*18:01. The description is as above. The settings on record: source organism: Hepacivirus hominis.
The target of experiment [33] is HLA-B*35:01. The experiment is described as above. Particulars: source organism: Hepacivirus hominis.
Experiment [34] concerns the target HLA-B*40:01. Described as above. Particulars: source organism: Hepacivirus hominis.
Experiment [35] concerns the target HLA-B*40:02. The experiment is described as above. The settings on record: source organism: Hepacivirus hominis.
The target of experiment [36] is HLA-B*44:02. Described as above. Particulars: source organism: Hepacivirus hominis.
Experiment [37] has as its target HLA-B*44:03. Described as above. The settings on record: source organism: Hepacivirus hominis.
The target in experiment [38] is HLA-B*51:01. Described as above. Particulars: source organism: Hepacivirus hominis.
For experiment [39], the target named is HLA-B*53:01. The description is as above. Particulars: source organism: Hepacivirus hominis.
Experiment [40] has as its target HLA-B*54:01. Described as above. The settings on record: source organism: Hepacivirus hominis.
Setting [41] is: source organism: Influenza A virus (A/chicken/Hunan/fg/2004(H5N1)).
Where [42] appears, read: source organism: Influenza B virus (B/Chiba/447/98).
The mark [43] stands for this setting: source organism: Influenza A virus (A/Puerto Rico/8/34/Mount Sinai(H1N1)).
The mark [44] stands for this setting: source organism: Influenza A virus (A/camel/Mongolia/1982(H1N1)).
The mark [45] stands for this setting: source organism: Giardia lamblia ATCC 50803.

pKd: −log10 of the molar value.

As for YSHGTGTGY, the pKd in experiment [1] (setting [41]) is no more than 4.70; in experiment [2] (setting [41]), no more than 4.70; in experiment [3] (setting [41]), no more than 4.70; in experiment [4] (setting [41]), no more than 4.70; in experiment [5] (setting [42]), 7.70; in experiment [6] (setting [41]), no more than 4.70. For the same sequence, the pKd is no more than 4.70 in experiment [7] (setting [41]); no more than 4.70 in [8] (setting [41]); no more than 4.70 in [9] (setting [41]); no more than 4.70 in experiment [10] (setting [42]); 7.00 in experiment [11] (setting [43]); no more than 4.70 in experiment [12] (setting [41]). Further, the pKd in experiment [13] (setting [41]) was no more than 4.70; in experiment [14] (setting [41]) it was 6.04.

EKFFPSSSY: the pKd in experiment [15] (setting [44]), in [1] (setting [44]), in experiment [2] (setting [44]), in experiment [3] (setting [44]), in [4] (setting [44]) and in [6] (setting [44]) was no more than 4.70 in each case. Also, the pKd in experiment [7] (setting [44]) was no more than 4.70; in [8] (setting [44]) it was no more than 4.70; in [9] (setting [44]) it was no more than 4.70; in [10] (source organism: Influenza A virus H3N2), no more than 4.70; in experiment [11] (setting [43]), 5.95; in [12] (setting [44]), no more than 4.70. The sequence further gave a pKd in [14] (setting [44]) of no more than 4.70.

Turning to SVFHEHIFK, the negative logarithm of the Kd (pKd) was no more than 4.70 in [15] (setting [45]); no more than 4.70 in experiment [1] (setting [45]); 6.81 in experiment [2] (setting [45]); 8.04 in experiment [3] (setting [45]); no more than 4.70 in [4] (setting [45]); no more than 4.70 in experiment [5] (setting [45]). Further, the pKd in experiment [6] (setting [45]) is 6.87; in [7] (setting [45]) it was no more than 4.70; in experiment [8] (setting [45]), no more than 4.70; in experiment [11] (setting [45]) it was no more than 4.70; in [12] (setting [45]), no more than 4.70; in [13] (setting [45]), no more than 4.70. Moreover, the pKd in experiment [16] and in experiment [14] (setting [45]) was no more than 4.70 in each case.

In the case of IVKYKQYLK, the negative logarithm of the Kd (pKd) was no more than 4.70 in experiment [15] (setting [45]); no more than 4.70 in [1] (setting [45]); 7.09 in experiment [2] (setting [45]); no more than 4.70 in experiment [4] (setting [45]); no more than 4.70 in experiment [7] (setting [45]); no more than 4.70 in [8] (setting [45]). Besides, the pKd in experiment [9] (setting [45]), in [10] (setting [45]), in experiment [11] (setting [45]), in experiment [17], in [12] (setting [45]) and in experiment [13] (setting [45]) was no more than 4.70 throughout. Besides, the pKd in experiment [16], in experiment [18] and in experiment [14] (setting [45]) was no more than 4.70 each time.

As for RPALVFDITK, the pKd in experiment [19] is no more than 4.29; in [20], no more than 4.43; in experiment [21] it was no more than 4.15; in [22], no more than 4.15; in experiment [23], 4.91; in [24], no more than 4.53. The negative logarithm of the Kd (pKd) in [25] was 6.10; in experiment [26] it was no more than 4.15; in experiment [27], no more than 4.15; in experiment [28], 6.88; in experiment [29], no more than 4.16; in experiment [30], 6.65. In addition, the pKd is no more than 4.30 in experiment [31]; no more than 4.15 in experiment [32]; no more than 4.56 in experiment [33]; no more than 4.16 in [34]; no more than 4.15 in experiment [35]; no more than 4.15 in [36]. The pKd in experiment [37] is 4.81; in experiment [38], no more than 4.16; in [39], 4.72; in [40], 4.95.
